Here are results for one substance from patent publication US12351605B2, “Optically controllable FGFR stimulation using wireless controlled cellular lighting system” (THE JOHNS HOPKINS UNIVERSITY, priority 2020, dated 2025).

Where two headings read alike, the source gives them in different places.

One data set has as its system FGF signaling pathway. The data set is described as follows: Western blot of ERK1/2 and MEK phosphorylation in Opto-FGFR hESCs. The note with it: 10 ng/mL FGF2 after 24 h FGF2 starvation; 15 min intervals up to 120 min. Format: cell-based, human. On the procedure:
Western blot analysis. The phosphorylation status of MEK and ERK1/2 were determined by Western blot analysis. The cells were starved from FGF2 protein for 24 h, and then exposed to either FGF2 protein or blue light illumination. One μg aliquots of whole cell lysates were loaded onto 4-20% gradient SDS-PAGE gels and then transferred to nitrocellulose membranes (Bio-Rad) using the Trans-Blot® Turbo™ Transfer System (Bio-Rad). The detection of phosphorylated ERK1/2 proteins (42 and 44 kDa) was performed using a phospho-ERK1/2 antibody (Cell Signaling), total ERK1/2 expression level was determined using a total […] antibody (Cell Signaling), detection of pMEK protein (45 kDa) was performed using a pMEK1/2 antibody (Cell Signaling), and total MEK expression level was determined using a total MEK1/2 antibody (Cell Signaling). The expression levels are quantified by normalizing to GAPDH expression (Cell Signaling). Following the primary antibody incubation, the membranes were incubated with the appropriate secondary antibodies and subsequently visualized with an ECL kit (Pierce).
Generation of a light-inducible FGF signaling system. […]
On the technique in general: In western blotting, separated proteins are transferred to a membrane and probed.

The conditions of data set [1]: daily feeding condition, cited from earlier work.

For the substance “FGF2: recombinant fibroblast growth factor 2 protein, medium component for maintaining pluripotency of PSCs”, in the data set with FGF signaling pathway, the “activation of FGF signaling (phosphorylation of ERK1/2 and MEK)” value was “activated FGF signaling”. For the same substance, the “decrease of FGF2 protein concentration” value in data set [1] (4 h after the initial feeding) was “approximately 40%”; in data set [1] (24 h after the initial feeding), “approximately 10%”.
